Assay results reported in article PMC3797442, “Analysis of the role of Arabidopsis class I TCP genes AtTCP7, AtTCP8, AtTCP22, and AtTCP23 in leaf development”.

Experiments:
AtTCP7 = AtTCP7 (Arabidopsis thaliana, UniProt Q9FMX2 1-250); assay: EMSA; LightShift Chemiluminescent EMSA Kit (Pierce), manufacturer's instructions; buffer, salt, pH and temperature not stated; settings: protein: recombinant; tags: N-terminal GST (pDEST15); chain copies: 2; label: biotin (both strands); blunt
AtTCP22;AtTCP23 = AtTCP22;AtTCP23 (Arabidopsis thaliana;Arabidopsis …, UniProt Q9C7G4;Q9LQF0 1-375;1-341, |); assay: EMSA; heterodimer; LightShift Chemiluminescent EMSA Kit (Pierce), manufacturer's instructions; buffer, salt, pH and temperature not stated; settings: protein: recombinant;recombinant; tags: N-terminal GST (pDEST15);N-terminal GST (pDEST15); copies: 1;1; label: biotin (both strands); blunt
AtTCP7;AtTCP23 = AtTCP7;AtTCP23 (Arabidopsis thaliana;Arabidopsis …, UniProt Q9FMX2;Q9LQF0 1-250;1-341, |); assay: as above; settings: protein: recombinant;recombinant; tags: N-terminal GST (pDEST15);N-terminal GST (pDEST15); copies: 1;1; label: biotin (both strands); blunt
AtTCP7;AtTCP22 = AtTCP7;AtTCP22 (Arabidopsis thaliana;Arabidopsis …, UniProt Q9FMX2;Q9C7G4 1-250;1-375, |); assay: as above; settings: protein: recombinant;recombinant; tags: N-terminal GST (pDEST15);N-terminal GST (pDEST15); copies: 1;1; label: biotin (both strands); blunt

Measured: binding result

Sequence of AtTCP7 (Q9FMX2 whole entry): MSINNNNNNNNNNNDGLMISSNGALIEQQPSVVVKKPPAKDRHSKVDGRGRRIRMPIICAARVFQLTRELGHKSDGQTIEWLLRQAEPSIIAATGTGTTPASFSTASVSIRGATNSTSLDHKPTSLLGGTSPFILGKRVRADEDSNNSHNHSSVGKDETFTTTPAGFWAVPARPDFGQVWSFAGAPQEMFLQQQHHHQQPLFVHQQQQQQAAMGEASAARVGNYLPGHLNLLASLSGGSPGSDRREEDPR
Sequence of AtTCP7;AtTCP22 (Q9FMX2 whole entry, chain 1 of 2): as the sequence (Q9FMX2 whole entry) above
Sequence of AtTCP7;AtTCP22 (Q9C7G4 whole entry, chain 2 of 2): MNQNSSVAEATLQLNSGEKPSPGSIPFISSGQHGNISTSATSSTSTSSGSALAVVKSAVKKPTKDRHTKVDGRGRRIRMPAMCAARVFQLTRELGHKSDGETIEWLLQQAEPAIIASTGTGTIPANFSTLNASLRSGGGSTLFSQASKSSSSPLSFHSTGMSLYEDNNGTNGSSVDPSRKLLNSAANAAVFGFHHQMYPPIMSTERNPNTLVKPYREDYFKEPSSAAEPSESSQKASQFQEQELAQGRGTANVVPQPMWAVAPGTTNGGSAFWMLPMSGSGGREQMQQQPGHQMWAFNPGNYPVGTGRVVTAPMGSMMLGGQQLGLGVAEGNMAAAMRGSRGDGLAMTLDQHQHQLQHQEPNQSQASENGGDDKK
Sequence of AtTCP7;AtTCP23 (Q9FMX2 whole entry, chain 1 of 2): as the sequence (Q9FMX2 whole entry) above
Sequence of AtTCP7;AtTCP23 (Q9LQF0 whole entry, chain 2 of 2): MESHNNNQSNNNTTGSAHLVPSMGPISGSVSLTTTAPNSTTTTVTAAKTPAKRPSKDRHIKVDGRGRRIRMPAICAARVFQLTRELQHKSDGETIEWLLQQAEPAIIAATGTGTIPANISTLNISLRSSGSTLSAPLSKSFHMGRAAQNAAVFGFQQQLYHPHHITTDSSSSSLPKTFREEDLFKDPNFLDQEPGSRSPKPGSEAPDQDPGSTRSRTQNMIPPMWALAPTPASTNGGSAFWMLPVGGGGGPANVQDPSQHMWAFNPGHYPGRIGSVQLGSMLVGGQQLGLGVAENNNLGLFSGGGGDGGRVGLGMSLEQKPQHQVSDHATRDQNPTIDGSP
Sequence of AtTCP22;AtTCP23 (Q9C7G4 whole entry, chain 1 of 2): as the sequence (Q9C7G4 whole entry, chain 2 of 2) above
Sequence of AtTCP22;AtTCP23 (Q9LQF0 whole entry, chain 2 of 2): as the sequence (Q9LQF0 whole entry, chain 2 of 2) above

B1: STM promoter K-box probe, 76 bp (dsDNA)
DNA 1: AACTATCACTATTTAGAATTTTCAATGTGGAAAAGGAAGCTGATTGTTGAAGCATAAATCCCGGGAGACCACTTTT
DNA 2: AAAAGTGGTCTCCCGGGATTTATGCTTCAACAATCAGCTTCCTTTTCCACATTGAAAATTCTAAATAGTGATAGTT
binds: all assays above
